Data taken from paper PMC3510490, “Structure of Actin-related protein 8 and its contribution to nucleosome binding” (Nucleic Acids Research, 2012).

What was measured:
[1] = test system: Human Arp8 (Δ1-33) (Homo sapiens); experiment: fluorescence titration; conditions: 20 mM Tris pH 7.5, 150 mM KCl, 5% glycerol, 1 mM TCEP, 0.01% CHAPS, 0.01% octylglucoside, room temperature 20-30 min, labelled species 0.5-1 nM, protein …
[2] = test system: Human Arp8 full-length (Homo sapiens); experiment: fluorescence titration; conditions: 20 mM Tris pH 7.5, 150 mM KCl, 5% glycerol, 1 mM TCEP, 0.01% CHAPS, 0.01% octylglucoside, room temperature 20-30 min, labelled species 0.5-1 nM, protein …
[3] = test system: Yeast Arp8 (Saccharomyces cerevisiae); experiment: fluorescence titration; conditions: 20 mM Tris pH 7.5, 150 mM KCl, 5% glycerol, 1 mM TCEP, 0.01% CHAPS, 0.01% octylglucoside, room temperature 20-30 min, labelled species 0.5-1 nM, protein …
[4] = test system: Yeast Arp8;Yeast Arp4;Actin (INO80 sub-complex I);Ino80 HSA domain (INO80 sub-complex I) (Saccharomyces cerevisiae;Saccharomyces cerevisiae;Saccharomyces cerevisiae;Saccharomyces cerevisiae); experiment: fluorescence titration; conditions: 20 mM Tris pH 7.5, 150 mM KCl, 5% glycerol, 1 mM TCEP, 0.01% CHAPS, 0.01% octylglucoside, room temperature 20-30 min, labelled species 0.5-1 nM, protein …
[5] = test system: Yeast Arp4 (Saccharomyces cerevisiae); experiment: fluorescence titration; conditions: 20 mM Tris pH 7.5, 150 mM KCl, 5% glycerol, 1 mM TCEP, 0.01% CHAPS, 0.01% octylglucoside; room temperature 20-30 min; labelled species 0.5-1 nM, protein …
[6] = molecular target: 207-bp nucleosome (Xenopus laevis); experiment: other fluorescence titration; Arp constructs or sub-complex titrated (1 to 5000 nM) into fluorescently labelled histone complexes or nucleosomes kept at 0.5-1 nM, 40 µl in microplates; 20 mM Tris pH 7.5, 150 mM KCl, 5% glycerol, 1 mM TCEP, 0.01% CHAPS, 0.01% octylglucoside; room temperature, 20-30 min; apparent Kd and Hill coefficient from non-linear fit; quadruplicates
[7] = molecular target: H2A–H2B dimer (Xenopus laevis) (UniProt P06897); experiment: as above

Sequence of Full-length Homo sapiens Arp8 (Q9H981 whole entry): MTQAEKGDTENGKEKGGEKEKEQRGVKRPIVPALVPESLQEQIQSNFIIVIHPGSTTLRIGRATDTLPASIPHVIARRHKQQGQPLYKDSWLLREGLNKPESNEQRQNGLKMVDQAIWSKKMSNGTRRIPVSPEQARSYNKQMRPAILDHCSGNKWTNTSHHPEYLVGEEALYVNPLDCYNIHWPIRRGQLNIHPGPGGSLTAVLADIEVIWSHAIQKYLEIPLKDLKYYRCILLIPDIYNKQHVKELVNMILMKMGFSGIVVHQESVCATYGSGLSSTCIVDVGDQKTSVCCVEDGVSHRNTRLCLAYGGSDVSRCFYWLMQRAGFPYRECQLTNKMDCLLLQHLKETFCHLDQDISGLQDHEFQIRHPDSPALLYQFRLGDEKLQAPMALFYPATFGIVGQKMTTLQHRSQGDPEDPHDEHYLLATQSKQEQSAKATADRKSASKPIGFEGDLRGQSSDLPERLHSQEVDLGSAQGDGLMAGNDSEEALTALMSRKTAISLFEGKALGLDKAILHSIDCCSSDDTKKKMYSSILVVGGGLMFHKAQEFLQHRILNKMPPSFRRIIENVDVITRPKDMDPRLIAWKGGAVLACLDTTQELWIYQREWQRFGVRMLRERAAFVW
Sequence of Homo sapiens Arp8 (Δ1–33) (Q9H981 34-624, stated change not applied): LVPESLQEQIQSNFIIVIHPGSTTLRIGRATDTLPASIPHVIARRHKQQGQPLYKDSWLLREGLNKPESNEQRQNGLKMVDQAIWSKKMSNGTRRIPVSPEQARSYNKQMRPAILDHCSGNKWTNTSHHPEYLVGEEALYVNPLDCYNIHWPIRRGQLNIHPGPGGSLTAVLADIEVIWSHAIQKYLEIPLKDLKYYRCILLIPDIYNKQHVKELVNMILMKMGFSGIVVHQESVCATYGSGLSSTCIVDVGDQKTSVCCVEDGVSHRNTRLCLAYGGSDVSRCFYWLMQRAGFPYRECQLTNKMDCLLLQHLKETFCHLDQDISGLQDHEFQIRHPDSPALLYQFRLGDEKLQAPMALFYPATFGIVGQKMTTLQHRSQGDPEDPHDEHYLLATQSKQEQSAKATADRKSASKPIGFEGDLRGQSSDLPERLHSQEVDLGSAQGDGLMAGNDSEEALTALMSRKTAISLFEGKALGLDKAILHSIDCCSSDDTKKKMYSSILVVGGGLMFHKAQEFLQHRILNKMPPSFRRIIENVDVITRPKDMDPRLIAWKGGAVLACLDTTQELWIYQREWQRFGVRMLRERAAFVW

Kd [6] [nM]	Kd [7] [nM]	Substance	also measured
		30-bp DNA ('601' sequence linker DNA)	Kd ([1]; 5' C6 amine): 6330 nM; Kd ([2]; 5' C6 amine): 6940 nM; Kd ([3]; 5' C6 amine): 1920 nM; Kd ([4]; 5' C6 amine): 366 nM
		207-bp nucleosome	Kd [1]: 62.6 nM; Kd [2]: 51 nM; Kd [5]: 204 nM; Kd [3]: 314 nM; Kd [4]: 63.6 nM
51	555	Full-length Homo sapiens Arp8 (from UniProt Q9H981 1-624) (natural protein)	
62.6	367	Homo sapiens Arp8 (Δ1–33) (from UniProt Q9H981 34-624) (domain or fragment)	
204		Saccharomyces cerevisiae Arp4 (from UniProt P80428 1-489) (natural protein)	
314	1950	Saccharomyces cerevisiae Arp8 (from UniProt Q12386 1-881) (natural protein)	
63.6	853	Saccharomyces cerevisiae INO80 sub-complex I (Arp8–Arp4–actin-HSA) (from UniProt Q12386 1-881; P80428 1-489; P60010 1-375; P53115 462-685)	
